Experimental data taken from publication PMC7948816 (2021).

B1: cardiac troponin I C-terminal peptide HcTnI-C27 184-210 (peptide)
chain: ENREVGDWRKNIDALSGMEGRKKKFES
B2: cardiac troponin I C-terminal peptide HcTnI-C27-H 184-210 (peptide)
chain: ENREVGDWHKNIDALSGMEGRKKKFES

Tests used:
[1] = biological target: T1, alpha-tropomyosin (Oryctolagus cuniculus, UniProt P58772); experiment: ITC
[2] = biological target: T1, alpha-tropomyosin; experiment: fluorescence titration

T1 sequence (P58772 whole entry): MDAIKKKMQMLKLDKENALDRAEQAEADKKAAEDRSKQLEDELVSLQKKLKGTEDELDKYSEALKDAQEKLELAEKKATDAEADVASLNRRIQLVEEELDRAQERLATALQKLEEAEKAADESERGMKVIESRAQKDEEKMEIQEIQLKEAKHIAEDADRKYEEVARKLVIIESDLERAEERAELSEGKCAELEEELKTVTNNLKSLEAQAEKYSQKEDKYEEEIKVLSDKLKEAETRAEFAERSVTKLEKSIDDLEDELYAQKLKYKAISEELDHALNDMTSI

Binder	Kd [1]	Kd [2]
B1	11 µM	8 µM
B2		15 µM
